Holding throughout (assay): SPR, hIgG1 antibody captured, room temp
For experiment [1], the target named is T1, Dimeric fibrinogen-like domain of human Ang-2 conjugated to human IgG1 (human).
T1 construct: also called Dimeric Human Ang-2FD; Human Ang-2FD-hFc
The procedure:
(§1) Antibody was captured on a goat anti-mouse IgG polyclonal antibody surface, a goat anti-human κ polyclonal antibody (Southern Biotech, Birmingham, Ala.) surface or a goat anti-human IgG polyclonal antibody (Jackson Immuno Research Lab, West Grove, Pa.) surface created through direct amine coupling to a BIACORE™ CM5 sensor chip to form a captured antibody surface. […] Antigen-antibody binding and dissociation were monitored in real time at room temperature. Kinetic analysis was performed to calculate KD and half-life of antigen/antibody complex dissociation.
(§2) The above experiment was repeated using selected purified anti-Ang-2 antibodies cloned onto human IgG1.

Experiment [2] deals with T2, Dimeric fibrinogen-like domain of mouse (Mus musculus) Ang-2 conjugated to human IgG1 (mouse (Mus musculus)).
T2 construct: also called Dimeric Mouse Ang-2FD; Mouse Ang-2FD-hFc
As to the method:
as §1, §2

In experiment [3] the target is T3, Dimeric fibrinogen-like domain of monkey (Macca fascicularis) Ang-2 conjugated to human IgG1 (monkey (Macca fascicularis)).
T3 construct: also called Dimeric Monkey Ang-2FD; Monkey Ang-2FD-hFc
As to the method:
as §1, §2

T3 sequence (chain, as listed by the source limits assumed): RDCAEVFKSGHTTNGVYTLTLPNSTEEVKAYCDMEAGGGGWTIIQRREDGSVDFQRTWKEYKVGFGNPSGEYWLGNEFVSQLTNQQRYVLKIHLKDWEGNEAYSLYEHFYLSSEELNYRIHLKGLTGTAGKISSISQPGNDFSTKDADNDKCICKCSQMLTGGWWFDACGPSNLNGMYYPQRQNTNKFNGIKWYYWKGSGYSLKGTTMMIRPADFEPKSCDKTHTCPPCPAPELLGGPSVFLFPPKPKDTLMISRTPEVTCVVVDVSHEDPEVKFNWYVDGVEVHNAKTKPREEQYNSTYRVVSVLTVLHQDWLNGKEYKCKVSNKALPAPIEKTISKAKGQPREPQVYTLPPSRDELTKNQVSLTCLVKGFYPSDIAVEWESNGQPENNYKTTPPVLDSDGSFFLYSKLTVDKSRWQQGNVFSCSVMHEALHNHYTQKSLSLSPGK
T2 sequence (chain, as listed by the source limits assumed): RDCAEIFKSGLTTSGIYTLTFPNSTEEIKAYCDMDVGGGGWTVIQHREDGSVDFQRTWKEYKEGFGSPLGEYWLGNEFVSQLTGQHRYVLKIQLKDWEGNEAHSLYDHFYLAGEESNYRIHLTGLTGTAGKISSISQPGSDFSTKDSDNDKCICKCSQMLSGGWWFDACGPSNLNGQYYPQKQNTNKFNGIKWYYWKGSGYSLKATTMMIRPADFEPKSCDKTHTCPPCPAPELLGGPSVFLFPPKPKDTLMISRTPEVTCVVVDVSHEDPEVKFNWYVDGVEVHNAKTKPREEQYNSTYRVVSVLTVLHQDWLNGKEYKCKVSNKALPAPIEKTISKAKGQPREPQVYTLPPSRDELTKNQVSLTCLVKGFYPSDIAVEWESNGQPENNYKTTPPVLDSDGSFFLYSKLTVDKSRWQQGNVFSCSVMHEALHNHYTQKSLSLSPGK
T1 sequence (chain, as listed by the source limits assumed): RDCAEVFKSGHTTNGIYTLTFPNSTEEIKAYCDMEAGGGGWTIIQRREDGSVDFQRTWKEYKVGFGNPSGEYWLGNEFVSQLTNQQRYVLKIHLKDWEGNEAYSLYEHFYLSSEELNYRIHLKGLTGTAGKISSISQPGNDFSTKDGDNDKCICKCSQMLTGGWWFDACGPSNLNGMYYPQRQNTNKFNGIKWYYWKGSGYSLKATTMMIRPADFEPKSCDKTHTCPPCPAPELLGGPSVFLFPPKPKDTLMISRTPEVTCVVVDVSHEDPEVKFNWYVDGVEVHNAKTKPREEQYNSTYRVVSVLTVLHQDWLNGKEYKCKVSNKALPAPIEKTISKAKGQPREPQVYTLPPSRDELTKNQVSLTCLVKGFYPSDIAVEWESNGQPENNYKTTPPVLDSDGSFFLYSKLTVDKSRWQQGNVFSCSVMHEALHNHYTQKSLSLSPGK

B1: H1H706P (antibody, V domains shown)
VH: QVQLVESGGGVVQPGRSLRLSCAASGFTFSSYGMHWVRQAPDKGLEWVAVKWDDGSNKYYADSVKGRFTISRDNSKNTLYLQMNSLRAEDTAVYYCAREGPYDFYSGYGAFDIWGQGTMVTVSS
VL: DIQMTQSPSSLSASVGDRVTITCRASQGISNYLAWFQQKPGKAPKSLIYAASSLQSGVPSKFSGSGSGTDFTLTISSLQPEDFATYYCQQYNSYPRTFGQGTKVEIK
With B1, the Kd (usually the constant that tells how readily two partners part at equilibrium) in experiment [1] stood at 0.201 nM; in experiment [2] it was 0.357 nM; in experiment [3], 0.164 nM. The entries for the “T1/2” value in experiment [1], in experiment [2] and in experiment [3] were 0.84 h, 0.783 h and 0.888 h, respectively.

B2: H1H707P (antibody, V domains shown)
VH: QVQLVESGGGVVQPGRSLRLSCAASGFTFSSYGMHWVRQAPDKGLEWVAVKWDDGSNKYYADSVKGRFTISRDNSKNTLYLQMNSLRAEDTAVYYCAREGPYDFYSGYGAFDIWGQGTMVTVSS
VL: not shown
In the case of B2, the Kd in experiment [1] was determined as 0.262 nM; in experiment [2], 0.328 nM; in experiment [3], 0.283 nM. In addition, the results for the “T1/2” value in experiment [1], in experiment [2] and in experiment [3] were 0.443 h, 0.573 h and 0.372 h, respectively.

B3: H1H724N (antibody, V domains shown)
VH: QVQLVESGGGVVQPGRSLRLSCAASGFTLSNYGMHWVRQAPGKGLEWVAVIWHDGSNTYYADSVKGRFTISRDNSKNTLYLQMNSLRAEDTAVYYCTREGLDFWSGYYPNWFDPWGQGTLVTVSS
VL: DIQMTQSPSSLSASVGDRVTITCRASQGIRNDLGWYQQKPGKAPKRLIYAASNLQGGVPSRFSGSGSGTEFTLTISSLQPEDFAAYYCLQHNIYPLTFGGGTKVEIK
On to B3, for which the Kd in experiment [1] was determined as 0.115 nM; in experiment [2], 0.185 nM; in experiment [3], 0.239 nM. Also, the figures for the “T1/2” value in experiment [1], in experiment [2] and in experiment [3] were 1.78 h, 1.4 h and 2.88 h, respectively.

B4: H1H704P (antibody, V domains shown)
VH: QVQLVESGGDVVQPGRSLRLSCAASGFTFSSYGMHWVRQAPGKGLEWVAIIWYDGSNKYYADSVKGRFTISRDNSKNTLYLQMNSLRVEDTAVYSCARDFSISSRHFDYWGQGTLVTVSS
VL: DIQMTQSPSSLSASVGDRVTITCRASQAINNYLAWFQQKPGKAPKSLIYATSNLQSGVPSQFSGSGSGTDYTLTISSLQPEDFATYYCQQYYIYPITFGQGTRLEIK
On to B4, for which the Kd is 0.331 nM in experiment [1], 0.484 nM in experiment [2] and 0.818 nM in experiment [3]. Also, the “T1/2” value in experiment [1] was determined as 1.43 h; in experiment [2] it was 1.03 h; in experiment [3], 0.558 h.

B5: H1H728N (antibody, V domains shown)
VH: EVQLVESGGDLVQPGGSLRLSCTASGFTFSKYWMTWVRQAPGRGLEWVANIKEDGNEKYFLDSVKGRFTISRDNAKDLLFLQMNSLRGEDTAVYYCVRDRGIEVAGPFDYWGQGTLVTVSS
VL: DIQMTQSPSTLSASVGDRVTVTCRASQTIINWLAWYQQKPGKAPKLLISKASSLESGVPSRFSGSGSGTEFTLTISSLQPDDFATYYCQQYNRYWTFGQGTMVEIK
On to B5, for which the Kd in experiment [1] worked out at 0.162 nM; in experiment [2], 5.76 nM; in experiment [3] it was 2 nM. Besides, the “T1/2” value came to 1.35 h in experiment [1], 0.333 h in experiment [2] and 1.28 h in experiment [3].

B6: H1H730N (antibody, V domains shown)
VH: EVQLVESGGGLVQPGGSLRLSCAASGFAFRSYWMTWVRQAPGKGLEWVANIQQDGNDKYYVDSVKGRFTISRDNAKNSLYLQMNSLRAEDTAVYYCARDTGIAEAGPFDYWGQGTLVTVSS
VL: DIQMTQSPSTLSASVGDRVSITCRASQTIISWLAWYQQKPGKAPRLLIYKASSLESGVPSRFSGSGSGTEFTLTINSLQPDDFATYYCQQYNRYWTFGQGTKVEIK
With B6, the Kd in experiment [1] stood at 0.234 nM; in experiment [2], 0.0971 nM; in experiment [3] it was 3.4 nM. The “T1/2” value in experiment [1] was determined as 1.03 h; in experiment [2], 1.5 h; in experiment [3], 1.45 h.

These data come from US20150147342A1 (published 2015).
